These results are taken from paper PMC8881611, “A mechanism of origin licensing control through autoinhibition of S. cerevisiae ORC·DNA·Cdc6” (Nature Communications, 2022).

To fix the notation:
B1: S. cerevisiae Cdc6 (ScCdc6), full length (natural protein, UniProt P09119 1-513, looked up)
chain: MSAIPITPTKRIRRNLFDDAPATPPRPLKRKKLQFTDVTPESSPEKLQFGSQSIFLRTKALLQKSSELVNLNSSDGALPARTAEYEQVMNFLAKAISEHRSDSLYITGPPGTGKTAQLDMIIRQKFQSLPLSLSTPRSKDVLRHTNPNLQNLSWFELPDGRLESVAVTSINCISLGEPSSIFQKIFDSFQDLNGPTLQIKNMQHLQKFLEPYHKKTTFVVVLDEMDRLLHANTSETQSVRTILELFLLAKLPTVSFVLIGMANSLDMKDRFLSRLNLDRGLLPQTIVFQPYTAEQMYEIVIQKMSSLPTIIFQPMAIKFAAKKCAGNTGDLRKLFDVLRGSIEIYELEKRFLLSPTRGSLNSAQVPLTPTTSPVKKSYPEPQGKIGLNYIAKVFSKFVNNNSTRTRIAKLNIQQKLILCTIIQSLKLNSDATIDESFDHYIKAITKTDTLAPLQRNEFLEICTILETCGLVSIKKTKCKGKTKRFVDKIDVDLDMREFYDEMTKISILKPFLH
notes: Cdc6, S. cerevisiae, wild type; also called co-loader; source: High5 insect cells, baculovirus, purified as ScORC (HisTrap, amylose, TEV cleavage, HisTrap, Superdex 200); not shown: His6, N-terminal, cleaved; MBP, N-terminal, cleaved
B2: S. cerevisiae Orc6 (natural protein, UniProt P38826 1-435, looked up)
chain: MSMQQVQHCVAEVLRLDPQEKPDWSSGYLKKLTNATSILYNTSLNKVMLKQDEEVARCHICAYIASQKMNEKHMPDLCYYIDSIPLEPKKAKHLMNLFRQSLSNSSPMKQFAWTPSPKKNKRSPVKNGGRFTSSDPKELRNQLFGTPTKVRKSQNNDSFVIPELPPMQTNESPSITRRKLAFEEDEDEDEEEPGNDGLSLKSHSNKSITGTRNVDSDEYENHESDPTSEEEPLGVQESRSGRTKQNKAVGKPQSELKTAKALRKRGRIPNSLLVKKYCKMTTEEIIRLCNDFELPREVAYKIVDEYNINASRLVCPWQLVCGLVLNCTFIVFNERRRKDPRIDHFIVSKMCSLMLTSKVDDVIECVKLVKELIIGEKWFRDLQIRYDDFDGIRYDEIIFRKLGSMLQTTNILVTDDQYNIWKKRIEMDLALTEPL
modifications: mixture of unphosphorylated and phosphorylated Orc6, including established CDK sites (sites not given)
notes: Orc6, S. cerevisiae, wild type; Stood in the assays as a subunit of ScORC·DNA(·Cdc6); also called ScOrc6; holds Orc6-CBN (N-terminal cyclin box fold) and Orc6-CBC (C-terminal cyclin box fold); source: High5 insect cells, co-expressed and purified as a subunit of ScORC

What all share (assay): cryo-EM structure; ScORC (2.5 uM), 84 bp ARS1 DNA (3 uM) and ScCdc6 (6.8 uM) reconstituted with 1 mM ATP, purified on Superose 6 in 25 mM HEPES-KOH pH 7.6, 250 mM potassium acetate, 10 mM magnesium acetate, 1 mM DTT, 0.2 mM ATP; not cross-linked; masked 3D classification
What all share (conditions): both partners purified

The target of assay [1] is T1, S. cerevisiae Origin Recognition Complex (ScORC), full-length Orc1-6 (S. cerevisiae, UniProt P54784 1-914; P32833 1-620; P54790 1-616; P54791 1-529; P50874 1-479; P38826 …, mixture of unphosphorylated and phosphorylated Orc6, including established CDK sites (sites not given)).
T1 construct: Orc1, S. cerevisiae, wild type; Orc2, S. cerevisiae, wild type; Orc3, S. cerevisiae, wild type; Orc4, S. cerevisiae, wild type; Orc5, S. cerevisiae, wild type; Orc6, S. cerevisiae, wild type; also called initiator; source: High5 insect cells co-infected with baculoviruses, purified (HisTrap, amylose, TEV cleavage, HisTrap, Sephacryl S-400); not shown: His6, N-terminal, cleaved; MBP, N-terminal, …
T1 sequence (P32833 whole entry, chain 2 of 4): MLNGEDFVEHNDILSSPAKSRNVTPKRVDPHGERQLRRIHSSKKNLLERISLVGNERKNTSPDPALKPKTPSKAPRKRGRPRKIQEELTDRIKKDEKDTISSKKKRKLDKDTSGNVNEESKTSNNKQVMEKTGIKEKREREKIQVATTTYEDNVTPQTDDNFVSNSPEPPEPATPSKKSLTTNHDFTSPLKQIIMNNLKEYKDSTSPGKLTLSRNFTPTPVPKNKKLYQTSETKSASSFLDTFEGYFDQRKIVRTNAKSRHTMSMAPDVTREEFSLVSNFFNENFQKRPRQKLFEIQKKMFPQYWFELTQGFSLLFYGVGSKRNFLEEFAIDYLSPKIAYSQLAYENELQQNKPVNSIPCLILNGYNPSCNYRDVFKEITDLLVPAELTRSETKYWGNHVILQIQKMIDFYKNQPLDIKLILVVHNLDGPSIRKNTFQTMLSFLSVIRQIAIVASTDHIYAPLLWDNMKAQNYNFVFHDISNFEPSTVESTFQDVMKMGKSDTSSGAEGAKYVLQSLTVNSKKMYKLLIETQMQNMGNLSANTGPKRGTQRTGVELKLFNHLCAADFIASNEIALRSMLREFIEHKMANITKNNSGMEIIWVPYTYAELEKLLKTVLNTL
T1 sequence (P54790 whole entry, chain 3 of 4): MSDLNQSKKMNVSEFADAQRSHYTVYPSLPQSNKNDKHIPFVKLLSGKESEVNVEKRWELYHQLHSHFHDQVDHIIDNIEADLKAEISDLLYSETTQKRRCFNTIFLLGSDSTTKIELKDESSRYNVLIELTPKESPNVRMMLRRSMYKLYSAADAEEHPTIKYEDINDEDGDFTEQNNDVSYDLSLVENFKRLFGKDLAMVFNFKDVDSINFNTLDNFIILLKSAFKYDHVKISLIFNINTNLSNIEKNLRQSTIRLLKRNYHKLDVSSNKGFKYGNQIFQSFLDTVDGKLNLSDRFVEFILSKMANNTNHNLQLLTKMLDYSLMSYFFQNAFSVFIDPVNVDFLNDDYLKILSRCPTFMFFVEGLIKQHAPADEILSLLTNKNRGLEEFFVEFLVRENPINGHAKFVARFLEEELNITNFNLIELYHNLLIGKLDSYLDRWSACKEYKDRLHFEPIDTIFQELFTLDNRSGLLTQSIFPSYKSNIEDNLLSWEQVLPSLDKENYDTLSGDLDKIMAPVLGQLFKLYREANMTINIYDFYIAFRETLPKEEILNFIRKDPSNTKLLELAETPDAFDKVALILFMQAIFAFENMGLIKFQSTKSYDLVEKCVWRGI
T1 sequence (P54791 whole entry, chain 4 of 4): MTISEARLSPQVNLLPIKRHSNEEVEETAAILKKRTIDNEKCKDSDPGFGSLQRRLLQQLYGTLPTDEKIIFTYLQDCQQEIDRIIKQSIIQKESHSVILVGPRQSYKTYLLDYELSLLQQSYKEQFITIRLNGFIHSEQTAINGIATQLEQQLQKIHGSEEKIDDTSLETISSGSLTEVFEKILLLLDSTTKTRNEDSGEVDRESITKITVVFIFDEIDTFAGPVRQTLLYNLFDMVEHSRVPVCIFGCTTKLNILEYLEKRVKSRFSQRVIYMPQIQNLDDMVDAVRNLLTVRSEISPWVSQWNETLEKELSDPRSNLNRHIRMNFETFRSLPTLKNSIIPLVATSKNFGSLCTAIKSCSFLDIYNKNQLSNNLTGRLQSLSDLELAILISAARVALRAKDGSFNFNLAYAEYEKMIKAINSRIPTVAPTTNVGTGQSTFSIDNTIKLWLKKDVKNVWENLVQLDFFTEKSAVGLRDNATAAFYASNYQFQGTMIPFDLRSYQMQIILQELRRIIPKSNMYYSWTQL
T1 sequence (P50874 whole entry, chain 5 of 4): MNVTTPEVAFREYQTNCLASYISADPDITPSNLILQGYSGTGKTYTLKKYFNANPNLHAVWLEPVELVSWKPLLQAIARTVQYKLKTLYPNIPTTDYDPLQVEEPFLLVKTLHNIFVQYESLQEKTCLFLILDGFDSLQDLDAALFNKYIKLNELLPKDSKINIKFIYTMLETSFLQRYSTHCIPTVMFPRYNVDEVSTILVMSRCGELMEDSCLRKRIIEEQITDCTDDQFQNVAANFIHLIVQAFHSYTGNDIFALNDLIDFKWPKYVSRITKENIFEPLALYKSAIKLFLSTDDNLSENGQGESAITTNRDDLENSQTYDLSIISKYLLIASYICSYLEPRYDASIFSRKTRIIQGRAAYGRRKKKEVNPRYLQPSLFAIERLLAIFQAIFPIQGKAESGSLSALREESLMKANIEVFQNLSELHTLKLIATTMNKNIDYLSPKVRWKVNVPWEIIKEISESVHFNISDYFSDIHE

The target of another assay is T2, S. cerevisiae Orc1 (S. cerevisiae, UniProt P54784 1-914).
T2 construct: Orc1, S. cerevisiae, wild type; Stood in the assays as a subunit of ScORC·DNA(·Cdc6); also called ScOrc1; source: High5 insect cells, co-expressed and purified as a subunit of ScORC; not shown: His6, N-terminal, cleaved
T2 sequence (looked up): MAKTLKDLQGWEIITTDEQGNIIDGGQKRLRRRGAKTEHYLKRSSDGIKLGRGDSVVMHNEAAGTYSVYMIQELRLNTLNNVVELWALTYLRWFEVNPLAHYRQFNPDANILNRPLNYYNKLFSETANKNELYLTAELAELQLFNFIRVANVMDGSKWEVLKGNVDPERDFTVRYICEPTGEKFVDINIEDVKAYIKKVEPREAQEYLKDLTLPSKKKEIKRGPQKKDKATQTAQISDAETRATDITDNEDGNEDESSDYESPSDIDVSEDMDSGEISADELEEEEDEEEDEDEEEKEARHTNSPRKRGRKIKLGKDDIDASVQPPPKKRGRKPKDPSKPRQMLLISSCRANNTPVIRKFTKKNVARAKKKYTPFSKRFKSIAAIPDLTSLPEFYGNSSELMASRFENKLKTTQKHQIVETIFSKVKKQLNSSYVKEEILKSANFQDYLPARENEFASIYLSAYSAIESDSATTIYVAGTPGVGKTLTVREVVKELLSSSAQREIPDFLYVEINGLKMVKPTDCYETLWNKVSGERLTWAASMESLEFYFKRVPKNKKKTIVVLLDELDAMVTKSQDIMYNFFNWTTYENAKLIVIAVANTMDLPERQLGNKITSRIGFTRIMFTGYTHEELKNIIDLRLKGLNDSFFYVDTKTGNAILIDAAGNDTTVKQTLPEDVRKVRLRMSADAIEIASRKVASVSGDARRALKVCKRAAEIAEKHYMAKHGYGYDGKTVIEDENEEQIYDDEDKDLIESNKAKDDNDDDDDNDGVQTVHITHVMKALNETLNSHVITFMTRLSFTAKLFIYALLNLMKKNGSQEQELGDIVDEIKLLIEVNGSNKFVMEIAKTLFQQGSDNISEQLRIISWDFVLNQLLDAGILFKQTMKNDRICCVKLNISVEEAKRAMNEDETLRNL

In assay [2] the target is B1.

With B1, the binding result (in assay [1]; with S. cerevisiae Orc1) was “binds” each time. For B2, the binding result in assay [2] is given as “binds”.
